The results in this text go back to publication PMC11919686, “Structural basis for Vipp1 membrane binding: from loose coats and carpets to ring and rod assemblies” (Nature Structural & Molecular Biology, 2024).

Data set [1] concerns the molecule itself. Briefly: cryo-EM structure; Vipp1 (α1–α6) with and without EPL membrane reconstitution; single-particle helical reconstruction of rods.
Data set [2] deals with the molecule itself. In words: cryo-EM structure; urea-unfolded protein added to an EPL lipid film and refolded by dialysis against 10 mM Tris-HCl pH 8.0; single-particle helical reconstruction or rotational symmetry (tubes, stacked rings, rings).
Data set [3] concerns the molecule itself. In words: negative-staining EM; protein refolded in the absence of membranes; 2% uranyl acetate.

Numbering of substitutions follows the chain as printed.

B1: Vipp1 (α1–α6), truncation of helix α0 (aa 1–23) (domain or fragment, Synechocystis sp. PCC 6803, UniProt Q55707 24-267, looked up)
chain: DPEKVLEQAVIDMQEDLVQLRQAVARTIAEEKRTEQRLNQDTQEAKKWEDRAKLALTNGEENLAREALARKKSLTDTAAAYQTQLAQQRTMSENLRRNLAALEAKISEAKTKKNMLQARAKAAKANAELQQTLGGLGTSSATSAFERMENKVLDMEATSQAAGELAGFGIENQFAQLEASSGVEDELAALKASMAGGALPGTSAATPQLEAAPVDSSVPANNASQDDAVIDQELDDLRRRLNNL
notes: Vipp1 (sll0617) of Synechocystis sp; PCC 6803 without helix α0 (aa 1–23 truncated); The models were built from PDB 7O3W with aa 1–22 removed, whereas the construct lacks aa 1–23; Residues of the 3C site may remain at the C-terminus; also called Vipp1(α1-6); truncated Vipp1 lacking α0; not shown: His-tag, C-terminal, cleaved
With B1, the binding result in data set [1] is given as “binds”.

B2: Vesicle-inducing protein in plastids 1 (Vipp1), full length, Synechocystis sp. PCC 6803 (natural protein, UniProt Q55707 1-267, looked up)
chain: MGLFDRLGRVVRANLNDLVSKAEDPEKVLEQAVIDMQEDLVQLRQAVARTIAEEKRTEQRLNQDTQEAKKWEDRAKLALTNGEENLAREALARKKSLTDTAAAYQTQLAQQRTMSENLRRNLAALEAKISEAKTKKNMLQARAKAAKANAELQQTLGGLGTSSATSAFERMENKVLDMEATSQAAGELAGFGIENQFAQLEASSGVEDELAALKASMAGGALPGTSAATPQLEAAPVDSSVPANNASQDDAVIDQELDDLRRRLNNL
notes: Vipp1 (sll0617) of Synechocystis sp; PCC 6803, full length; The C-terminal His-tag was cut off with 3C protease; residues of the 3C site may remain at the C-terminus; The deposited models hold 215 residues only; also called IM30; WT; not shown: His-tag, C-terminal, cleaved
As to B2, the binding result in data set [2] is recorded as “binds”.

B3: Vipp1 dL10Ala (substitution of aa 157–166 to alanine) (natural protein, Synechocystis sp. PCC 6803, UniProt Q55707 1-267, looked up)
chain: B2 chain with G157A, G158A, L159A, G160A, T161A, S162A, S163A, T165A, S166A
notes: Vipp1 (sll0617) of Synechocystis sp; PCC 6803 with the hinge 2 region (aa 157–166) replaced by ten alanines; The methods describe the denaturing purification and tag cleavage only for Vipp1 and Vipp1 (α1–α6); this mutant was probably handled in the same way; also called Vipp1dlA10; plasticity-restrained Vipp1 mutant; source: E. coli C41; reconstituted with EPL lipids or without membranes
B3: the binding result in data set [2] is reported as “binds”.

B4: Vipp1 dL10 (truncation of aa 157–166) (natural protein, Synechocystis sp. PCC 6803, UniProt Q55707 1-267, looked up)
chain: MGLFDRLGRVVRANLNDLVSKAEDPEKVLEQAVIDMQEDLVQLRQAVARTIAEEKRTEQRLNQDTQEAKKWEDRAKLALTNGEENLAREALARKKSLTDTAAAYQTQLAQQRTMSENLRRNLAALEAKISEAKTKKNMLQARAKAAKANAELQQTLAFERMENKVLDMEATSQAAGELAGFGIENQFAQLEASSGVEDELAALKASMAGGALPGTSAATPQLEAAPVDSSVPANNASQDDAVIDQELDDLRRRLNNL
notes: Vipp1 (sll0617) of Synechocystis sp; PCC 6803 with aa 157–166 (hinge 2) deleted; The methods describe the purification and tag cleavage only for Vipp1 and Vipp1 (α1–α6); source: E. coli C41
For the protein B4, the binding result in data set [3] was “binds”.
